The target of the assay is monkey Mpl (monkey).

This note sets out measurements from patent US20090297501A1.

The substance hTPO (ligand) displayed an EC50 (read off the curve) (growth of BaF3-monkey Mpl cells, WST-8) [B] of 0.01 nM.
